Assay results taken from patent US20040018971A1 (published 2004).

Experiments:
HLA-A*0101 [1] = molecular target: T1, HLA-A*0101 (human); experiment: competition with 125I-labelled probe peptide for purified HLA-A*0101, gel filtration
T1 construct: also called HLA-A1

[2] = molecular target: HLA-A*0301 (purified HLA class I molecule) (human); experiment: competition vs 125I standard peptide, purified HLA
[3] = molecular target: T2, HLA-A*1101 (purified HLA class I molecule) (human); experiment: competition vs 125I standard peptide, purified HLA
T2 construct: Purified MHC molecule

[4] = molecular target: T3, HLA-A*3101 (purified HLA class I molecule) (human); experiment: competition vs 125I standard peptide, purified HLA
T3 construct: Purified MHC molecule

[5] = molecular target: T4, HLA-A*3301 (purified HLA class I molecule) (human); experiment: competition vs 125I standard peptide, purified HLA
T4 construct: Purified MHC molecule

[6] = molecular target: T5, HLA-A*6801 (purified HLA class I molecule) (human); experiment: competition vs 125I standard peptide, purified HLA
T5 construct: Purified MHC molecule

[7] = molecular target: T6, HLA-A*0301 (purified HLA class I molecule) (human); experiment: inhibition of 125I probe peptide binding to purified HLA; ratio to standard peptide
T6 construct: also called A3

[8] = molecular target: HLA-A*1101 (purified HLA class I molecule) (human); experiment: inhibition of 125I probe peptide binding to purified HLA; ratio to standard peptide; minus sign not explained
HLA-A*0202 = HLA-A*0202 (human); experiment: competition with 125I probe peptide for purified HLA
HLA-A*0203 = HLA-A*0203 (human); experiment: as above
HLA-A*0206 = HLA-A*0206 (human); experiment: as above
HLA-A*0201 = molecular target: T7, HLA-A*0201 (human); experiment: competitive inhibition of 125I-labeled probe peptide binding to purified HLA-A*0201
T7 construct: also called HLA-A2.1; A2.1

HLA-A*0101 [9] = molecular target: T8, HLA-A*0101 (human); experiment: competition with a 125I-labelled probe peptide for purified HLA-A*0101, gel filtration; ratio against the A*0101 standard peptide 944.02 [..] (25 nM)
T8 construct: Purified HLA molecule, 5 to 500 nM in the assay; also called HLA-A1

HLA-DRB1*0401 = molecular target: T9, HLA-DRB1*0401 (human); experiment: competition with 125I-labeled standard peptide, purified HLA-DR, gel filtration
T9 construct: also called DR4w4

HLA-DRB1*0701 = molecular target: T10, HLA-DRB1*0701 (human); experiment: as above
T10 construct: also called DR7

HLA-A*6802 = HLA-A*6802 (human); experiment: competition with 125I probe peptide for purified HLA
HLA-A*0301 = HLA-A*0301 (human); experiment: inhibition of 125I-labelled standard peptide binding to purified HLA, gel filtration
HLA-A*1101 = HLA-A*1101 (human); experiment: as above
HLA-A*3101 = HLA-A*3101 (human); experiment: as above
HLA-A*3301 = HLA-A*3301 (human); experiment: as above
HLA-A*6801 = HLA-A*6801 (human); experiment: as above
[10] = molecular target: HLA-DR1 (DRB1*0101), purified HLA class II molecule (human); experiment: competition with 125I-labelled probe peptide, purified HLA-DR
[11] = molecular target: T6, HLA-A*0301 (purified HLA class I …); experiment: inhibition of 125I probe peptide binding to purified HLA; ratio to standard peptide; minus sign not explained

ETLEEITGYLY (also called Her2/neu.401) [HER2/neu peptide, position 401, 11 amino acids] was tested, and the relative binding ratio (HLA-A*0101 [1]) was 0.44 ratio (IC50 of standard peptide / IC50 of test peptide).

ILIKRRQQK [HER2/neu peptide, position 673, 9 amino acids] was tested, and the relative binding ratio [2] was 0.38 ratio (IC50 standard/IC50 test), the relative binding ratio [3] was 0.0097 ratio (IC50 standard/IC50 test) and the relative binding ratio [4] was 0.076 ratio (IC50 standard/IC50 test). The relative binding ratio [5] was 0.0064 ratio (IC50 standard/IC50 test) and the relative binding ratio [6] was 0.0001 ratio (IC50 standard/IC50 test).

ESMPNPEGR [HER2/neu peptide, position 280, 9 amino acids] was tested, and the relative binding ratio [7] was 0.0003 ratio (IC50 standard / IC50 test) and the relative binding ratio [8] was -0.0002 ratio (IC50 standard / IC50 test).

Binder QLMPYGCLL [Her2/neu.799 QLMPYGCLL] has an IC50 (HLA-A*0202) of 977 nM, an IC50 (HLA-A*0203) of 114 nM and an IC50 (HLA-A*0206) of 712 nM.

Work on YMIMVKCWM [Her2/neu.952] yielded an IC50 (HLA-A*0201) of no more than 500 nM.

In the case of ETHLDMLRHLY (also called Her2/neu.40) [HER2/neu peptide, position 40, 11 amino acids], the relative binding ratio (HLA-A*0101 [1]) is reported as 0.28 ratio (IC50 of standard peptide / IC50 of test peptide).

With VFETLEEITGY (also called Her2/neu.399) [HER2/neu peptide, position 399, 11 amino acids] the “relative binding ratio (IC50 of standard peptide / IC50 of test peptide)” value (HLA-A*0101 [9]) was 0.0045 ratio.

For ILKETELRK [HER2/neu peptide, position 714, 9 amino acids], the relative binding ratio [2] was 0.019 ratio (IC50 standard/IC50 test), the relative binding ratio [3] was 0.0023 ratio (IC50 standard/IC50 test) and the relative binding ratio [4] was 0.0009 ratio (IC50 standard/IC50 test). The relative binding ratio [5] was 0.001 ratio (IC50 standard/IC50 test) and the relative binding ratio [6] was 0.0001 ratio (IC50 standard/IC50 test).

B1: HER2/neu DR supermotif exemplary peptide KEILDEAYVMAGVGS (position 765) (peptide)
peptide: KEILDEAYVMAGVGS
notes: synthetic 15-mer; also called Her2/neu.765
B1 was tested, and the relative binding ratio (HLA-DRB1*0401) was 0.0073 ratio (standard IC50 / test IC50) and the relative binding ratio (HLA-DRB1*0701) was -0.0011 ratio (standard IC50 / test IC50).

Binder YMIMVKCWM [Her2/neu.952 (9-mer) YMIMVKCWM] has an IC50 (HLA-A*6802) of 1000 nM.

For PTHDPSPLQRY [HER2/neu peptide, position 1102, 11 amino acids], the relative binding ratio (HLA-A*0101 [1]) was 0.016 ratio (IC50 of standard peptide / IC50 of test peptide).

In the case of RLVHRDLAAR (Synthetic A3 supermotif peptide) [HER2/neu peptide, position 840, 10 amino acids], the relative binding ratio (HLA-A*0301) is reported as 0.18 ratio (IC50 of standard peptide / IC50 of test peptide), the relative binding ratio (HLA-A*1101) is reported as 0.0001 ratio (IC50 of standard peptide / IC50 of test peptide) and the relative binding ratio (HLA-A*3101) is reported as 0.95 ratio (IC50 of standard peptide / IC50 of test peptide). The relative binding ratio (HLA-A*3301) was 0.0021 ratio (IC50 of standard peptide / IC50 of test peptide) and the relative binding ratio (HLA-A*6801) was 0.0036 ratio (IC50 of standard peptide / IC50 of test peptide).

With TIDVYMIMVK (Synthetic A3 supermotif peptide) [HER2/neu peptide, position 948, 10 amino acids] the relative binding ratio (HLA-A*0301) was 0.013 ratio (IC50 of standard peptide / IC50 of test peptide), the relative binding ratio (HLA-A*1101) was 0.12 ratio (IC50 of standard peptide / IC50 of test peptide) and the relative binding ratio (HLA-A*3101) was 0.0018 ratio (IC50 of standard peptide / IC50 of test peptide). The relative binding ratio (HLA-A*3301) was 0.012 ratio (IC50 of standard peptide / IC50 of test peptide) and the relative binding ratio (HLA-A*6801) was 0.025 ratio (IC50 of standard peptide / IC50 of test peptide).

VLVKSPNHVK (Synthetic A3 supermotif peptide) [HER2/neu peptide, position 851, 10 amino acids] was tested, and the relative binding ratio (HLA-A*0301) was 0.082 ratio (IC50 of standard peptide / IC50 of test peptide), the relative binding ratio (HLA-A*1101) was 0.0072 ratio (IC50 of standard peptide / IC50 of test peptide) and the relative binding ratio (HLA-A*3101) was 0.0052 ratio (IC50 of standard peptide / IC50 of test peptide). For the same binder, the relative binding ratio (HLA-A*3301) was 0.0032 ratio (IC50 of standard peptide / IC50 of test peptide) and the relative binding ratio (HLA-A*6801) was 0.0005 ratio (IC50 of standard peptide / IC50 of test peptide).

In the case of ALCRWGLLLA [Her2/neu.5 (10-mer) ALCRWGLLLA], the IC50 (HLA-A*0202) is reported as 1960 nM, the IC50 (HLA-A*0203) is reported as 12 nM and the IC50 (HLA-A*0206) is reported as 1950 nM. The IC50 (HLA-A*6802) was 2500 nM.

QPDVRPQPPSPREGP (also called Her2/neu.1142) [HER2/neu DR supermotif exemplary 15-mer QPDVRPQPPSPREGP (position 1142)] was tested, and the relative binding ratio [10] was 0.0007 ratio (IC50 standard / IC50 test).

With CSPMCKGSR (also called Her2/neu.195 (9-mer)) [HER2/neu peptide, position 195, 9 amino acids] the relative binding ratio [11] was -0.0008 ratio (IC50 standard / IC50 test) and the relative binding ratio [8] was -0.0001 ratio (IC50 standard / IC50 test).

With HTVPWDQLFR (also called Her2/neu.478) [HER2/neu peptide, position 478, 10 amino acids] the relative binding ratio [2] was 0.0035 ratio (IC50 standard/IC50 test), the relative binding ratio [3] was 0.072 ratio (IC50 standard/IC50 test) and the relative binding ratio [4] was 0.96 ratio (IC50 standard/IC50 test). The relative binding ratio [5] was 0.33 ratio (IC50 standard/IC50 test) and the relative binding ratio [6] was 2 ratio (IC50 standard/IC50 test).

CSKPCARVCY [HER2/neu peptide, position 334, 10 amino acids] was tested, and the relative binding ratio (HLA-A*0101 [1]) was 0.0016 ratio (IC50 of standard peptide / IC50 of test peptide).

B2: Her2/neu.166 (10 amino acids) (peptide)
peptide: TILWKDIFHK
notes: Synthetic A3 supermotif peptide; also called HER2/neu peptide, position 166, 10 amino acids
B2 was tested, and the relative binding ratio (HLA-A*0301) was 0.043 ratio (IC50 of standard peptide / IC50 of test peptide), the relative binding ratio (HLA-A*1101) was 3.6 ratio (IC50 of standard peptide / IC50 of test peptide) and the relative binding ratio (HLA-A*3101) was 0.037 ratio (IC50 of standard peptide / IC50 of test peptide). The relative binding ratio (HLA-A*3301) was 0.042 ratio (IC50 of standard peptide / IC50 of test peptide) and the relative binding ratio (HLA-A*6801) was 0.04 ratio (IC50 of standard peptide / IC50 of test peptide).
